Data on three molecules can be found in US20250076311A1 (Chugai, published 2025).

Positions count from the first letter of the chain named.

The target of one assay is T1, Mouse latent myostatin (mouse, UniProt O08689 26-267; O08689 268-376, limits assumed).
T1 sequence 1: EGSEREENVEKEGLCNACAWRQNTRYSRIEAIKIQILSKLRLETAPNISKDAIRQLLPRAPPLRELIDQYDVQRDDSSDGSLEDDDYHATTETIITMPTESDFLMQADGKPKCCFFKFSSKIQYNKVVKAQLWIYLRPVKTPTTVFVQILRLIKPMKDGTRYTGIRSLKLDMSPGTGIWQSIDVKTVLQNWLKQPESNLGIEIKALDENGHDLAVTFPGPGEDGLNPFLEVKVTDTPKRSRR
T1 sequence 2: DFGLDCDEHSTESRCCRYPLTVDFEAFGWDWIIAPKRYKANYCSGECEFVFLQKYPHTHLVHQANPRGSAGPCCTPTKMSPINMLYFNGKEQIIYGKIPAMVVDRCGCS
Briefly: SPR (Biacore T200), 37C, pH 5.8, antibody captured on ProA/G. The procedure: ProA/G (Pierce) was immobilized onto all flow cells of a CM4 chip using an amine coupling kit (GE Healthcare). All antibodies and analytes were prepared in ACES pH7.4 or pH5.8 buffer containing 20 mM ACES, 150 mM NaCl, 1.2 mM CaCl₂, 0.05% TWEEN® 20, 0.005% NaN3. […] The sensor surface was regenerated each cycle with 10 mM Glycine HCl pH1.5. Binding affinity was determined by processing and fitting the data to a 1:1 binding model using BIACORE® T200 Evaluation software, version 2.0 (GE Healthcare).

In assay [1] the target is T2, cynomolgus monkey FcγRIIb extracellular domain with C-terminal His-tag (cynomolgus monkey).
T2 construct: also called cyno FcgRIIb; cynoFcγRIIb
T2 chain: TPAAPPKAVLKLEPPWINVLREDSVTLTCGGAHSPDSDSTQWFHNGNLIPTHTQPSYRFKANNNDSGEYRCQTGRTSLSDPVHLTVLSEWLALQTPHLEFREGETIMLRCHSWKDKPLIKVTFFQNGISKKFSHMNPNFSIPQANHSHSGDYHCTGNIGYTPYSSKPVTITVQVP
Description: SPR (Biacore), antibody captured, FcgR analyte.

Assay [2] addresses T3, human FcγRIIaH extracellular domain, His-tagged (human, UniProt P12318 34-217).
T3 construct: also called human FcγRIIa (type H); FcgRIIaH
T3 sequence: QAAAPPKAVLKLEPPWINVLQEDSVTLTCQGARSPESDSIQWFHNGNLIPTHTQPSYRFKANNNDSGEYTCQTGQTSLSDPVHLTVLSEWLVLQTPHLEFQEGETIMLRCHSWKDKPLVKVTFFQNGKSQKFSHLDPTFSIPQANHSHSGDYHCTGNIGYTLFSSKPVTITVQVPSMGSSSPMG
Description: SPR (BIACORE), antibody captured, FcγR analyte, 25 C; KD of SG1 divided by KD of variant.

The target of assay [3] is T4, human FcγRIIb extracellular domain, His-tagged (human, UniProt P31994 43-217).
T4 construct: also called human FcgRIIb; FcgRIIb (human)
T4 sequence: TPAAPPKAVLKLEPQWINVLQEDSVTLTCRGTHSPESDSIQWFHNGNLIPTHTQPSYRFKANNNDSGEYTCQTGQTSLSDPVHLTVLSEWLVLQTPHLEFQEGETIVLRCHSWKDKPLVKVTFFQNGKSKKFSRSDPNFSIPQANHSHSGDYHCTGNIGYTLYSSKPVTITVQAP
The assay is described as above.

The target of assay [4] is T5, human FcγRIIIaV extracellular domain, His-tagged (human, UniProt P08637 17-208).
T5 construct: also called human FcγRIIIa (V158); FcgRIIIaV
The description is as above.

T5 sequence (P08637 17-208 F176V): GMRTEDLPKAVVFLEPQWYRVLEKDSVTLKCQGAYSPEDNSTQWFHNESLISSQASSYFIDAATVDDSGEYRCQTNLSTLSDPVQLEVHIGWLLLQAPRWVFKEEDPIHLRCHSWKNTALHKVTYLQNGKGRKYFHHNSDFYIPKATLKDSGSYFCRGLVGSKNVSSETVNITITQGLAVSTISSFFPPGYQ

B1: MS1032LO21-SG1 (antibody, human IgG1, kappa, V domains shown)
VH: QVTLKESGPVLVKPTETLTLTCKVSGIDLSHDDISWVRQAPGKGLEWVSIISYAGSTYYASWAKGRLTISKDTSKNQVVLTMTNMDPVDTATYYCARGVPAYSHGGDLWGQGTLVTVSS
VL: DIVMTQSPATLSLSPGERATLSCTTSQSVYHENWLSWFQQKPGQPPKLLIYWASTLAYGVPSRFSGSGSGTDFTLTISSLQPEDAATYYCAGGYGGGRYAFGQGTKVEIKR
In the assay with Mouse latent myostatin, B1 showed a Kd of 29.4 nM.

B2: M103205H795-MY476/M103202L889-SK1 (antibody)
chain 1: QVTLKESGPVLVKPTETLTLTCTVSGIDLSHDDISWVRQAPGKGLEWVGIISYAGSTYYASWAKGRLTISKDTSKNQVVLTMTNMDPVDTATYYCARGVPAYSHGGDLWGQGTLVTVSSASTKGPSVFPLAPSSKSTSGGTAALGCLVKDYFPEPVTVSWNSGALTSGVHTFPAVLQSSGLYSLSSVVTVPSSSLGTQTYICNVNHKPSNTKVDKKVEPKSCDKTHTCPPCPYPELLTGPSVFLFPPKPKDTLMISRTPEVTCVVVDVSDEDPEVKFNWYVDGVEVHNAKTKPREEQYNSTYRVVSVLTVLHQDWLNGKEYKCKVSNKALPKPIEKTISKAKGQPREPQVYTLPPSREEMTKNQVSLTCLVKGFYPSDIAVEWESNGQPENNYKTTPPVLDSDGSFFLYSKLTVDKSRWQQGNVFSCSVMHEALHNHYTQKSLSLSP
chain 2: DIVMTQSPATLSLSPGERATLSCTSSQSVYHANWLSWFQQKPGQPPKLLIYWASTLAYGVPSRFSGSGSGTDFTLTISSLQPEDAATYYCAGGYGGGRYAFGQGTKVEIKRTVAAPSVFIFPPSDEQLKSGTASVVCLLNNFYPREAKVQWKVDNALQSGNSQESVTEQDSKDSTYSLSSTLTLSKADYEKHKVYACEVTHQGLSSPVTKSFNRGEC
Molecule B2 showed a Kd in assay [1] of 390 nM.

B3: M103205H795-MY450/M103202L889-SK1 (antibody, human IgG1, kappa, name in EU numbering)
heavy: B2 chain 1 with Y233A, P234M
light: B2 chain 2
Take B3: the “KD fold (SG1 = 1)” value was determined as 5.3 fold in assay [2], 9.8 fold in assay [3] and 0.2 fold in assay [4].
